Measured values: patent US20200115714A1 (GEORGIA TECH RESEARCH, published 2020)

Tests used:
15N-octanoyl-AcpP = target: T1, 15N-octanoyl-AcpP (Escherichia coli, UniProt P0A6A8 2-78, octanoyl group, 15N-labelled (printed as 15N-octanoyl-AcpP); attachment site not given); assay: NMR titrations between 15N-octanoyl-AcpP and the AbTEs
T1 construct: Purified, labelled AcpP of the NMR titrations; also called 15N-AcpP; E. coli ACP

[1] = target: T2, E. coli fatty acid biosynthesis acyl carrier protein (E. coli AcpP), P0A6A8
T2 chain: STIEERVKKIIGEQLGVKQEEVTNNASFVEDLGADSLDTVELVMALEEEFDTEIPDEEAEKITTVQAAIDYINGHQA

B1: AbTE:G17R with C-terminal His6-tag (pET-28b-AbTE:G17R) (enzyme)
chain: MGKTILILGDSLSAGYRINPEQGWVALLQKRLDQQFPKQHKVINASVSGETTSGALARLPKLLTTYRPNVVVIELGGNDALRGQPPQMIQSNLEKLIQHSQKAKSKVVVFGMKIPPNYGTAYSQAFENNYKVVSQTYQVKLLPFFLDGVAGHKSLMQNDQIHPNAKAQSILLNNAYPYIKGALHHHHHH
notes: Purified protein; also called pET-AbTE:G17R
binding result (15N-octanoyl-AcpP): binds

B2: AbTE:G17R/A165R with C-terminal His6-tag (pET-28b-AbTE:G17R/A165R) (enzyme)
chain: MGKTILILGDSLSAGYRINPEQGWVALLQKRLDQQFPKQHKVINASVSGETTSGALARLPKLLTTYRPNVVVIELGGNDALRGQPPQMIQSNLEKLIQHSQKAKSKVVVFGMKIPPNYGTAYSQAFENNYKVVSQTYQVKLLPFFLDGVAGHKSLMQNDQIHPNRKAQSILLNNAYPYIKGALHHHHHH
notes: Purified protein; also called pET-AbTE:G17R/A165R
binding result (15N-octanoyl-AcpP): binds

B3: AbTE:G17E (protein)
chain: MGKTILILGDSLSAGYEINPEQGWVALLQKRLDQQFPKQHKVINASVSGETTSGALARLPKLLTTYRPNVVVIELGGNDALRGQPPQMIQSNLEKLIQHSQKAKSKVVVFGMKIPPNYGTAYSQAFENNYKVVSQTYQVKLLPFFLDGVAGHKSLMQNDQIHPNAKAQSILLNNAYPYIKGAL
secreted MCFAs, E. coli (GC/MS) [1]: ˜21 mg/L and 14 mg/L of secreted MCFAs, respectively

B4: AbTE:G17E/A165R (protein)
chain: MGKTILILGDSLSAGYEINPEQGWVALLQKRLDQQFPKQHKVINASVSGETTSGALARLPKLLTTYRPNVVVIELGGNDALRGQPPQMIQSNLEKLIQHSQKAKSKVVVFGMKIPPNYGTAYSQAFENNYKVVSQTYQVKLLPFFLDGVAGHKSLMQNDQIHPNRKAQSILLNNAYPYIKGAL
secreted MCFAs, E. coli (GC/MS) [1]: This favorable effect in secreted MCFAs or secreted fatty acids of all chain lengths is not seen in AbTE:G17E/A165R

B5: AbTE:G17R/A165R (protein)
chain: MGKTILILGDSLSAGYRINPEQGWVALLQKRLDQQFPKQHKVINASVSGETTSGALARLPKLLTTYRPNVVVIELGGNDALRGQPPQMIQSNLEKLIQHSQKAKSKVVVFGMKIPPNYGTAYSQAFENNYKVVSQTYQVKLLPFFLDGVAGHKSLMQNDQIHPNRKAQSILLNNAYPYIKGAL
secreted MCFA titers against AbTE:G17R [1]: a 29% increase in secreted MCFA titers when compared to expression of AbTE:G17R
secreted MCFA titers against AbTE:WT [1]: a more than 3-fold in secreted MCFA titers when compared to AbTE:WT
secreted MCFAs, E. coli MG1655, 24 hrs (GC/MS) [1]: ˜98 mg/L of secreted MCFAs
secreted MCFAs, E. coli, 72 hrs (GC/MS) [1]: increased from 98 mg/L to 131 mg/L when extending the cultivation time from 24 hrs to 72 hrs

B6: AbTE:G17E/A165E (protein)
chain: MGKTILILGDSLSAGYEINPEQGWVALLQKRLDQQFPKQHKVINASVSGETTSGALARLPKLLTTYRPNVVVIELGGNDALRGQPPQMIQSNLEKLIQHSQKAKSKVVVFGMKIPPNYGTAYSQAFENNYKVVSQTYQVKLLPFFLDGVAGHKSLMQNDQIHPNEKAQSILLNNAYPYIKGAL
secreted MCFAs, E. coli (GC/MS) [1]: ˜21 mg/L and 14 mg/L of secreted MCFAs, respectively

B7: Acinetobacter baylyi acyl-ACP thioesterase (AbTE) wild type (protein)
chain: MGKTILILGDSLSAGYGINPEQGWVALLQKRLDQQFPKQHKVINASVSGETTSGALARLPKLLTTYRPNVVVIELGGNDALRGQPPQMIQSNLEKLIQHSQKAKSKVVVFGMKIPPNYGTAYSQAFENNYKVVSQTYQVKLLPFFLDGVAGHKSLMQNDQIHPNAKAQSILLNNAYPYIKGAL
secreted MCFAs, E. coli MG1655, 24 hrs (GC/MS) [1]: ˜29 mg/L of secreted MCFAs
secreted MCFAs, E. coli, 72 hrs (GC/MS) [1]: from ˜29 mg/L to ˜79 mg/L

B8: AbTE:G17R/A165E (protein)
chain: MGKTILILGDSLSAGYRINPEQGWVALLQKRLDQQFPKQHKVINASVSGETTSGALARLPKLLTTYRPNVVVIELGGNDALRGQPPQMIQSNLEKLIQHSQKAKSKVVVFGMKIPPNYGTAYSQAFENNYKVVSQTYQVKLLPFFLDGVAGHKSLMQNDQIHPNEKAQSILLNNAYPYIKGAL
secreted MCFAs, E. coli (GC/MS) [1]: AbTE:G17R/A165E resulted in ˜57 mg/L of secreted MCFAs

B9: AbTE:G17R (protein)
chain: MGKTILILGDSLSAGYRINPEQGWVALLQKRLDQQFPKQHKVINASVSGETTSGALARLPKLLTTYRPNVVVIELGGNDALRGQPPQMIQSNLEKLIQHSQKAKSKVVVFGMKIPPNYGTAYSQAFENNYKVVSQTYQVKLLPFFLDGVAGHKSLMQNDQIHPNAKAQSILLNNAYPYIKGAL
secreted MCFAs, E. coli MG1655, 24 hrs (GC/MS) [1]: ˜76 mg/L of secreted MCFAs
secreted MCFAs, E. coli, 72 hrs (GC/MS) [1]: cultivating E. coli expressing AbTE:G17R for 72 hrs did not result in any changes in MCFA titers

B10: AbTE:T120R/A121R (protein)
chain: MGKTILILGDSLSAGYGINPEQGWVALLQKRLDQQFPKQHKVINASVSGETTSGALARLPKLLTTYRPNVVVIELGGNDALRGQPPQMIQSNLEKLIQHSQKAKSKVVVFGMKIPPNYGRRYSQAFENNYKVVSQTYQVKLLPFFLDGVAGHKSLMQNDQIHPNAKAQSILLNNAYPYIKGAL
secreted MCFAs, E. coli, 24 hrs (GC/MS) [1]: AbTE:T120R/A121R produced ˜45 mg/L of secreted MCFAs
